According to patent US20120094909A1 (Bristol-Myers Squibb, published 2012):

Legend:
[1] = target: T1, human PCSK9 (proprotein convertase subtilisin kexin type 9) (human, UniProt Q8NBP7 31-692); experiment: FRET, competitor ATI001125
T1 construct: Directly immobilized (SPR ProteOn), biotinylated (BLI), or in solution, depending on the assay; also called hPCSK9
Source text: (§1) Table 11 summarizes the overall data from these three FRET assays.

[2] = target: T1, human PCSK9 (proprotein convertase …); experiment: FRET, competitor EGFA peptide
Source text: as §1

cynomolgus monkey PCSK9 = cynomolgus monkey PCSK9 (cynomolgus monkey, UniProt A0A7N9D9N8 150-747); experiment: FRET, competitor EGFA peptide
Source text: as §1

[3] = target: T1, human PCSK9 (proprotein convertase …); experiment: BLI Octet Red, 37 C
Method: (§2) Tips were then immersed into a buffer-only well for observation of Adnectin dissociation. Experiments were performed in a temperature controlled environment at either 25 or 37° C., and the oscillation speed was set at 1500 rpm.
(§3) Binding interaction analysis was performed using proprietary software from Fortebio (Fortebio Data Analysis Software version 6.3.0.36). Global fits were performed for all samples, using a 1:1 binding model. The nature of these global fits constrained all values of concentration to a single pair of association and dissociation rates that were themselves constrained to each other. Affinities (KD), association and dissociation rates were averaged over the various loading levels used in the analysis.

[4] = target: T1, human PCSK9 (proprotein convertase …); experiment: BLI, biotinylated hPCSK9 on sensor tips
Method: as §2, §3

[5] = target: T1, human PCSK9 (proprotein convertase …); experiment: FRET direct binding, anti-his6 antibody
Source text: as §1

| IC50 [1] | EC50 [2] | IC50 [2] | EC50 (cynomolgus monkey PCSK9) | Kd [3] | Kd [4] | koff [4] | kon [4] | EC50 [5] | Binder |
| --- | --- | --- | --- | --- | --- | --- | --- | --- | --- |
| 0.3 nM | 0.9 nM | 0.9 nM | 17.9 nM | 1.86 nM | 1.86 nM | 0.000483 s⁻¹ | 251000 M⁻¹ s⁻¹ | 3.6 nM | 2382H09 (designed binder, Anti-PCSK9 Adnectin, His6-tagged) MGVSDVPRDLEVVAATPTSLLISWDAPAAAYGYYRITYGETGGNSPVQEFTVPSSKGTATISGLKPGVDYTITVYAVEFDFPGSGYYHRPISINYRTEIDKPSQHHHHHH |
| 0.4 nM | 2.6 nM | 2.6 nM | 18.2 nM | 1.4 nM | 1.4 nM | 0.000382 s⁻¹ | 288000 M⁻¹ s⁻¹ | 4.6 nM | 2382H10 (designed binder, Anti-PCSK9 Adnectin, His6-tagged) MGVSDVPRDLEVVAATPTSLLISWDAPAGGYGYYRITYGETGGNSPVQEFTVPVSKGTATISGLKPGVDYTITVYAVEFDFPGSGYYHRPISINYRTEIDKPSQHHHHHH |
| 0.2 nM | 0.2 nM | 0.2 nM | 27.1 nM | 2.08 nM | 2.08 nM | 0.00094 s⁻¹ | 448000 M⁻¹ s⁻¹ | 13.2 nM | 2451H07 (designed binder, Anti-PCSK9 Adnectin, His6-tagged) MGITDVPRDLEVVAATPTSLLISWNPPDVNYGYYRITYGETGGNSPLQEFTVPVSKGTATISGLKPGVDYTITVYAVEYPYAHAGYYHRPISINYRTEIDKPSQHHHHHH |
| 0.9 nM | 2.4 nM | 2.4 nM | 14.6 nM | 4.54 nM | 4.54 nM | 0.00109 s⁻¹ | 244000 M⁻¹ s⁻¹ | 3.8 nM | 2382F05 (designed binder, Anti-PCSK9 Adnectin, His6-tagged) MGVSDVPRDLEVVAATPTSLLISWDAPAEAGKHYGYYRITYGETGGNSPVQEFTVPVSKGTATISGLKPGVDYTITVYAVEFDFPGAGYYHRPISINYRTEIDKPSQHHHHHH |
| 1 nM | 2.6 nM | 2.6 nM | 27.1 nM | 4.11 nM | 4.11 nM | 0.00094 s⁻¹ | 213000 M⁻¹ s⁻¹ | 4.1 nM | 2381B08 (designed binder, Anti-PCSK9 Adnectin, His6-tagged) MGVSDVPRDLEVVAATPTSLLISWDAPADGGYGYYRITYGETGGNSPVQEFTVPSSKGTATISGLKPGVDYTITVYAVEYTFPGAGYYHRPISINYRTEIDKPSQHHHHHH |
| 0.5 nM | 2.4 nM | 2.4 nM | 10.8 nM | 2.94 nM | 2.94 nM | 0.000596 s⁻¹ | 220000 M⁻¹ s⁻¹ | 3.7 nM | 2382E03 (designed binder, Anti-PCSK9 Adnectin, His6-tagged) MGVSDVPRDLEVVAATPTSLLISWDAPAGDGYGYYRITYGETGGNSPVQEFTVPVSKGTATISGLKPGVDYTITVYAVEFDFPGAGYYHRPISINYRTEIDKPSQHHHHHH |
| 0.9 nM | 4 nM | 4 nM | 27.2 nM | 2.49 nM | 2.49 nM | 0.000879 s⁻¹ | 368000 M⁻¹ s⁻¹ | 3.4 nM | 2382C05 (designed binder, Anti-PCSK9 Adnectin, His6-tagged) MGVSDVPRDLEVVAATPTSLLISWDAPADGAYGYYRITYGETGGNSPVQEFTVPVSKGTATISGLKPGVDYTITVYAVEYSFPGAGYYHRPISINYRTEIDKPSQHHHHHH |
| 0.6 nM | 3.3 nM | 3.3 nM | 11.8 nM | 1.53 nM | 1.53 nM | 0.000663 s⁻¹ | 354000 M⁻¹ s⁻¹ | 3.3 nM | 2382D03 (designed binder, Anti-PCSK9 Adnectin, His6-tagged) MGVSDVPRDLEVVAATPTSLLISWDAPADEAYGYYRITYGETGGNSPVQEFTVPVSKGTATISGLKPGVDYTITVYAVEFDFPGAGYYHRPISINYRTEIDKPSQHHHHHH |
| 0.5 nM | 3.4 nM | 3.4 nM | 20.2 nM | 3.23 nM | 3.23 nM | 0.00046 s⁻¹ | 136000 M⁻¹ s⁻¹ | 4.1 nM | 2381H09 (designed binder, Anti-PCSK9 Adnectin, His6-tagged) MGVSDVPRDLEVVAATPTSLLISWDAPAGGGYGYYRITYGETGGNSPVQEFTVPVSKGTATISGLKPGVDYTITVYAVEFDFVGAGYYHRPISINYRTEIDKPSQHHHHHH |
| 0.8 nM | 4 nM | 4 nM | 26.5 nM | 1.59 nM | 1.59 nM | 0.000522 s⁻¹ | 323000 M⁻¹ s⁻¹ | < 1 nM | 2381F11 (designed binder, Anti-PCSK9 Adnectin, His6-tagged) MGVSDVPRDLEVVAATPTSLLISWDAPADGGYGYYRITYGETGGNSPVQEFTVPVSKSTATISGLKPGVDYTITVYAVEYTFPGAGYYHRPISINYRTEIDKPSQHHHHHH |
| 0.5 nM | 2.9 nM | 2.9 nM | 20.1 nM | 1.11 nM | 1.11 nM | 0.000464 s⁻¹ | 419000 M⁻¹ s⁻¹ | 3.6 nM | 2382G04 (designed binder, Anti-PCSK9 Adnectin, His6-tagged) MGVSDVPRDLEVVAATPTSLLISWDAPAGGGYGYYRITYGETGGNSPVQEFTVPSSKGTATISGLKPGVDYTITVYAVEFDFPGAGYYHRPISINYRTEIDKPSQHHHHHH |
| 0.4 nM | 2.8 nM | 2.8 nM | 12.6 nM | 0.604 nM | 0.604 nM | 0.00025 s⁻¹ | 436000 M⁻¹ s⁻¹ | 3.8 nM | 2382E05 (designed binder, Anti-PCSK9 Adnectin, His6-tagged) MGVSDVPRDLEVVAATPTSLLISWDAPAEGGYGYYRITYGETGGNSPVQEFTVPVSKGTATISGLKPGVDYTITVYAVEFDFPGAGYYHRPISINYRTEIDKPSQHHHHHH |
| 0.3 nM | 3.4 nM | 3.4 nM | 19.8 nM | 0.677 nM | 0.677 nM | 0.000557 s⁻¹ | 471000 M⁻¹ s⁻¹ | 3.8 nM | 2382H03 (designed binder, Anti-PCSK9 Adnectin, His6-tagged) MGVSDVPRDLEVVAATPTSLLISWDAPAEGAYGYYRITYGETGGNSPVQEFTVPVSKGTATISGLKPGVDYTITVYAVEYPYPFAGYYHRPISINYRTEIDKPSQHHHHHH |
| 1.1 nM | 3.1 nM | 3.1 nM | 25.2 nM | 1.12 nM | 1.12 nM | 0.000291 s⁻¹ | 271000 M⁻¹ s⁻¹ | 4.5 nM | 2381G09 (designed binder, Anti-PCSK9 Adnectin, His6-tagged) MGVSDVPRDLEVVAATPTSLLISWDAPAGDGYGYYRITYGETGGNSPVQEFTVPVSKGTATISGLKPGVDYTITVYAVEFTFPGAGYYHRPISINYRTEIDKPSQHHHHHH |
| 0.5 nM | 2.9 nM | 2.9 nM | 12 nM | 0.237 nM | 0.237 nM | 6.9e-05 s⁻¹ | 266000 M⁻¹ s⁻¹ | 3.7 nM | 2381D04 (designed binder, Anti-PCSK9 Adnectin, His6-tagged) MGVSDVPRDLEVVAATPTSLLISWEPFSRLPGGGEYYRITYGETGGNSPLQQFTVPGSKGTATISGLKPGVDYTITVYAVEFPYDHSGYYHRPISINYRTEIDKPSQHHHHHH |
| 0.5 nM | 2.5 nM | 2.5 nM | 9.8 nM | 3.29 nM | 3.29 nM | 0.000831 s⁻¹ | 265000 M⁻¹ s⁻¹ | 8.4 nM | 2381B02 (designed binder, Anti-PCSK9 Adnectin, His6-tagged) MGVSDVPRDLEVVAATPTSLLISWEPFSRLPGGGEYYRITYGETGGNSPLQQFTVPGSKGTATISGLKPGVDYTITVYAVEYPYDYSGYYHRPISINYRTEIDKPSQHHHHHH |
| 0.5 nM | 2.4 nM | 2.4 nM | 17.3 nM | 0.527 nM | 0.527 nM | 0.00016 s⁻¹ | 309000 M⁻¹ s⁻¹ | 4.2 nM | 2381B04 (designed binder, Anti-PCSK9 Adnectin, His6-tagged) MGVSDVPRDLEVVAATPTSLLISWEPFSRLPGGGEYYRITYGETGGNSPLQQFTVPGSKGTATISGLKPGVDYTITVYAVEYPYEHSGYYHRPISINYRTEIDKPSQHHHHHH |
| 0.4 nM | 1.2 nM | 1.2 nM | 24.7 nM | 1.27 nM | 1.27 nM | 0.000435 s⁻¹ | 347000 M⁻¹ s⁻¹ | 5.5 nM | 2451C06 (designed binder, Anti-PCSK9 Adnectin, His6-tagged) MGVSDVPRDLEVVAATPTSLLISWDAPAGAASYGYYRITYGETGGNSPVQEFTVPVSKGTATISGLKPGVDYTITVYAVEFPFPGAGYYHRPISINYRTEIDKPSQHHHHHH |
